Data taken from US20090264344A1 (University of California, published 2009).
Bridges are numbered along the chain shown (N, C = ends).

Assays:
[1] = biological target: T1, Glycosylated HIV-1 gp120 (LAV) envelope glycoprotein (HIV-1 (LAV), UniProt P03377 33-516, limits assumed, glycosylated); experiment: SPR (Biacore 2000), gp120 LAV immobilized on CM5 chip, peptide in flow, 1:1 fit
T1 construct: domain: gp120; Bought
Experimental: Surface plasmon resonance (SPR) experiments were done with a Biacore 2000 system (Biacore, Inc., Piscataway, N.J.). The running buffer (pH 7.4) contained 10 mM HEPES, 150 mM NaCl, 3 mM EDTA and 0.005% polysorbate 20. The immobilized proteins (gp120-LAV and CD4) were dissolved at 20 μg/ml in 10 mM sodium acetate, pH 5.0 and immobilized on a Biacore CM5 sensor chip using the amine coupling method. The chip was activated by mixing 400 mM EDC (N-ethyl-N-(3-dimethylaminopropyl)-carbodiimide hydrochloride) and 100 mM N-hydroxysuccinimide. An immobilization level of 6000 response units (RU) was attained for each bound protein. Residual reactive groups on the chip surface were blocked using 1.0 Methanolamine/HCl, pH 8.5.
In those experiments, biosensor chips containing immobilized gp120 or CD4 were perfused with a 1 μg/ml solution of the peptides, and binding was measured by surface plasmon resonance.

[2] = biological target: T2, Recombinant HIV-1 BaL gp120 (HIV-1 (BaL)); experiment: SPR (Biacore 2000), gp120 BaL immobilized on chip, peptide in flow, 1:1 fit
T2 construct: domain: gp120; also called gp120(BaL); gp120 BaL

[3] = biological target: T3, Recombinant human soluble CD4 (full-length 45 kDa glycosylated ectodomain) (human, UniProt P01730 26-396); experiment: SPR (Biacore 2000), soluble CD4 immobilized on CM5 chip, peptide in flow, 1:1 fit
T3 construct: extracellular domain; Immobilized on a CM5 chip by amine coupling

Binder	Kd [1]	Kd [2]	Kd [3]
cyclo(GICRCICGRGICRCICGR) (disulfide 7-12, 5-14, 3-16; SMILES CC[C@H](C)[C@@H]1NC(=O)CNC(=O)[C@H](CCCNC(=N)N)NC(=O)CNC(=O)[C@@H]2CSSC[C@H](NC1=O)C(=O)N[C@@H](CCCNC(=N)N)C(=O)N[C@H]1CSSC[C@H](NC(=O)[C@H](CCCNC(=N)N)NC(=O)[C@@H]3CSSC[C@H](NC(=O)[C@H]([C@@H](C)CC)NC1=O)C(=O)NCC(=O)N[C@@H](CCCNC(=N)N)C(=O)NCC(=O)N[C@@H]([C@@H](C)CC)C(=O)N3)C(=O)N[C@@H]([C@@H](C)CC)C(=O)N2, Made by solid phase synthesis, then oxidized and cyclized; also called Retro1) [Retrocyclin-1 (RC-100)]	35.4 nM	29.2 nM	31 nM
cyclo(GICRCICGKGICRCICGR) (disulfide (positions not given here), Synthetic cyclic congener of retrocyclin; It was unlabelled in the SPR experiments) [RC-101 (R9K-Retrocyclin)]	31.2 nM	20.5 nM	28.6 nM
